From patent US12312417B2, “Binding proteins 1” (Nucleus Therapeutics Pty. Ltd., priority 2017, dated 2025)

Assays:
Format in all cases: cell-based
[1] = tested on: HDR-proficient DLD1 cells; experiment: Cell death in HDR-proficient cells, di-scFv with PARP inhibitor; settings: 5 nM olaparib, 10 μM di-scFv, or both
Description: Homology-directed repair (HDR) deficient BRCA2-DLD1 cells and PTEN-U251 cells were treated with control, 5 nM olaparib, 10 μM di-scFv, or 10 μM di-scFv+5 nM olaparib. Surviving fraction was determined by colony formation assay.
It was then determined whether the combination of di-scFv and olaparib is simply universally cytotoxic, regardless of DNA repair status. To evaluate this possibility, HDR-proficient DLD1 cells were treated with the above regimen to confirm selectivity of combination therapy to HDR-deficient malignant cells.

DLD1 colon cancer cells = experiment: Alkaline phosphatase-based survey of nuclear penetration; settings: cells treated for one hour; right shift of histogram peak
Description: DLD1 colon cancer cells were treated with control media or each of the indicated variants for one hour. Cells were then washed, fixed, blocked with 1% BSA-TBST, and then probed with protein L for one hour. Cells were then washed and incubated with an anti-protein L primary antibody for one hour. After another round of washing cells were incubated with an alkaline phosphatase-conjugated secondary antibody for one hour. Finally, cells were washed and signal was developed by addition of NBT/BCIP. Dark stain indicates location of the variants.
Raw integrated density values reflecting nuclear alkaline phosphatase staining in the DLD1 cells from the experiment in FIG. 3 were obtained by analysis using ImageJ Boxplots of distributions of values are presented for each variant in FIG. 4.
Histogram plots of cell counts versus nuclear staining intensity (represented as reciprocal intensity in arbitrary units) are shown in FIG. 5.

[2] = tested on: PTEN-deficient U87 human glioma cells; experiment: Cell viability by Trypan blue exclusion assay; settings: 7 days after treatment; relative to control treated cells
Description: Cell viability of PTEN-deficient U87 human glioma cells was also assessed following treatment with control media or media containing Variants 10, 13, 15, or 16. Cell viability was determined 7 days after treatment using Trypan blue exclusion assay and by direct visualization of cell morphology by light microscopy.

[3] = tested on: PTEN-deficient U251 human glioma cells; experiment: Phospho-53BP1 foci accumulation (DNA damage); settings: PTEN-deficient U251; twenty-four hours; vs control media
Description: A matched pair of PTEN-proficient and deficient U251 human glioma cells were treated with control media or media containing Variant 10, 11, 13, 15, or 16 for twenty-four hours. Cells were then washed, fixed, blocked, and then probed with an anti-phospho-53BP1 antibody overnight. Cells were then washed and incubated with an AlexaFluor555-conjugated secondary antibody. Finally, cells were washed, counterstained with DAPI, and visualized under a fluorescence microscope. Images were saved and evaluated by CellProfiler to determine mean number of phospho-53BP1 foci per cell.
A matched pair of BRCA2-proficient and deficient DLD1 colon cancer cells and PTEN-proficient and deficient U251 human glioma cells were treated with control media or media containing 10 μM di-scFv variant 13 (SEQ ID NO: 41), 5 nM olaparib, or combination treatment.

[4] = tested on: BRCA2-proficient DLD1 colon cancer cells; experiment: Cell viability by Trypan blue exclusion assay; settings: 7 days later
Description: (§1) Next, a matched pair of BRCA2-proficient and deficient DLD1 colon cancer cells was treated with control media or media containing Variants 10, 13, 15, or 16. Cell viability was determined 7 days later by Trypan blue exclusion assay and by direct visualization of cell morphology by light microscopy. […] Representative light microscope images shown the changes in morphology in the BRCA2-deficient cancer cells treated with the variants are shown in FIG. 10, Panel A. Quantitative analysis of the cell survival by Trypan blue exclusion assay is shown in FIG. 10, Panel B.

[5] = tested on: BRCA2-deficient DLD1 colon cancer cells; experiment: Cell viability by Trypan blue exclusion assay; settings: 7 days later
Description: as §1

Molecule | cell death [1] | nuclear penetration relative to the yeast prototype (histogram of cell counts versus nuclear staining intensity) (DLD1 colon cancer cells) | cell viability [2] | mean number of phospho-53BP1 foci per cell [3] | cell viability / toxicity [4] | cell viability / toxicity [5]
O=C(c1cc(Cc2n[nH]c(=O)c3ccccc23)ccc1F)N1CCN(C(=O)C2CC2)CC1 [olaparib, reference compound] | remain resistant |  |  |  |  | 
Variant 12: cell penetrating anti-DNA humanized di-scFv, SEQ ID NO: 40 (protein, Variant 12) scFv: DIQMTQSPSSLSASVGDRVTITCRASKSVSTSSYSYMHWYQQKPGKAPKLLIKYASYLESGVPSRFSGSGSGTDFTLTISSLQPEDFATYYCQHSREFPWTFGQGTKVEIKRADAAPGGGGSGGGGSGGGGSEVQLVESGGGDVKPGGSLRLSCAASGFTFSNYGMHWVRQAPEKGLEWVSYISSSSSTIYYADSVKGRFTISRDNSKNTLYLQMNSLRAEDTAVYYCARRGLLLDYWGQGTTVTVSSASTKGPSVFPLAPLESSGSDIQMTQSPSSLSASVGDRVTITCRASKSVSTSSYSYMHWYQQKPGKAPKLLIKYASYLESGVPSRFSGSGSGTDFTLTISSLQPEDFATYYCQHSREFPWTFGQGTKVEIKRADAAPGGGGSGGGGSGGGGSEVQLVESGGGDVKPGGSLRLSCAASGFTFSNYGMHWVRQAPEKGLEWVSYISSSSSTIYYADSVKGRFTISRDNSKNTLYLQMNSLRAEDTAVYYCARRGLLLDYWGQGTTVTVSS |  | Most of the variants, other than variants 12 and 14, showed improved nuclear penetration |  |  |  | 
Variant 14: cell penetrating anti-DNA humanized di-scFv, SEQ ID NO: 42 (protein, Variant 14) scFv: DIQMTQSPSSLSASLGDRATITCRASKTVSTSSYSYMHWYQQKPGQPPKLLIKYASYLESGVPSRFSGSGSGTDFTLTISSLQPEDAATYYCQHSREFPWTFGGGTKVEIKRADAAPGGGGSGGGGSGGGGSEVQLVESGGGVVQPGGSLRLSCAASGFTFSNYGMHWVRQAPEKGLEWVSYISSGSSTIYYADSVKGRFTISRDNSKNTLYLQMNSLRAEDTAVYYCARRGLLLDYWGQGTTVTVSSASTKGPSVFPLAPLESSGSDIQMTQSPSSLSASLGDRATITCRASKTVSTSSYSYMHWYQQKPGQPPKLLIKYASYLESGVPSRFSGSGSGTDFTLTISSLQPEDAATYYCQHSREFPWTFGGGTKVEIKRADAAPGGGGSGGGGSGGGGSEVQLVESGGGVVQPGGSLRLSCAASGFTFSNYGMHWVRQAPEKGLEWVSYISSGSSTIYYADSVKGRFTISRDNSKNTLYLQMNSLRAEDTAVYYCARRGLLLDYWGQGTTVTVSS |  | Most of the variants, other than variants 12 and 14, showed improved nuclear penetration |  |  |  | 
Variant 15: cell penetrating anti-DNA humanized di-scFv, SEQ ID NO: 43 (protein, Variant 15) scFv: DIQMTQSPSSLSASLGDRATITCRASKTVSTSSYSYMHWYQQKPGQPPKLLIKYASYLESGVPSRFSGSGSGTDFTLTISSLQPEDAATYYCQHSREFPWTFGGGTKVEIKRADAAPGGGGSGGGGSGGGGSEVQLVESGGGDVKPGGSLRLSCAASGFTFSNYGMHWVRQAPEKGLEWVSYISSGSSTIYYADSVKGRFTISRDNSKNTLYLQMNSLRAEDTAVYYCARRGLLLDYWGQGTTVTVSSASTKGPSVFPLAPLESSGSDIQMTQSPSSLSASLGDRATITCRASKTVSTSSYSYMHWYQQKPGQPPKLLIKYASYLESGVPSRFSGSGSGTDFTLTISSLQPEDAATYYCQHSREFPWTFGGGTKVEIKRADAAPGGGGSGGGGSGGGGSEVQLVESGGGDVKPGGSLRLSCAASGFTFSNYGMHWVRQAPEKGLEWVSYISSGSSTIYYADSVKGRFTISRDNSKNTLYLQMNSLRAEDTAVYYCARRGLLLDYWGQGTTVTVSS |  | notable right shift and narrowing of distributions | reductions in cell viability | increased the number of foci | not toxic | killed by the variants
Variant 10: cell penetrating anti-DNA humanized di-scFv, SEQ ID NO: 38 (protein, Variant 10) scFv: DIQMTQSPSSLSASVGDRVTITCRASKSVSTSSYSYMHWYQQKPGKAPKLLIKYASYLESGVPSRFSGSGSGTDFTLTISSLQPEDFATYYCQHSREFPWTFGQGTKVEIKRADAAPGGGGSGGGGSGGGGSEVQLVESGGGLVQPGGSLRLSCAASGFTFSNYGMHWVRQAPGKGLEWVSYISSSSSTIYYADSVKGRFTISRDNAKNSLYLQMNSLRAEDTAVYYCARRGLLLDYWGQGTTVTVSSASTKGPSVFPLAPLESSGSDIQMTQSPSSLSASVGDRVTITCRASKSVSTSSYSYMHWYQQKPGKAPKLLIKYASYLESGVPSRFSGSGSGTDFTLTISSLQPEDFATYYCQHSREFPWTFGQGTKVEIKRADAAPGGGGSGGGGSGGGGSEVQLVESGGGLVQPGGSLRLSCAASGFTFSNYGMHWVRQAPGKGLEWVSYISSSSSTIYYADSVKGRFTISRDNAKNSLYLQMNSLRAEDTAVYYCARRGLLLDYWGQGTTVTVSS |  |  | reductions in cell viability | increased the number of foci | not toxic | killed by the variants
Variant 11: cell penetrating anti-DNA humanized di-scFv, SEQ ID NO: 39 (protein, Variant 11) scFv: DIQMTQSPSSLSASVGDRVTITCRASKSVSTSSYSYMHWYQQKPGKAPKLLIKYASYLESGVPSRFSGSGSGTDFTLTISSLQPEDFATYYCQHSREFPWTFGQGTKVEIKRADAAPGGGGSGGGGSGGGGSEVQLVESGGGVVQPGGSLRLSCAASGFTFSNYGMHWVRQAPEKGLEWVSYISSSSSTIYYADSVKGRFTISRDNSKNTLYLQMNSLRAEDTAVYYCARRGLLLDYWGQGTTVTVSSASTKGPSVFPLAPLESSGSDIQMTQSPSSLSASVGDRVTITCRASKSVSTSSYSYMHWYQQKPGKAPKLLIKYASYLESGVPSRFSGSGSGTDFTLTISSLQPEDFATYYCQHSREFPWTFGQGTKVEIKRADAAPGGGGSGGGGSGGGGSEVQLVESGGGVVQPGGSLRLSCAASGFTFSNYGMHWVRQAPEKGLEWVSYISSSSSTIYYADSVKGRFTISRDNSKNTLYLQMNSLRAEDTAVYYCARRGLLLDYWGQGTTVTVSS |  |  |  | increased the number of foci |  | 
Variant 16: cell penetrating anti-DNA humanized di-scFv, SEQ ID NO: 44 (protein, Variant 16) scFv: DIQMTQSPSSLSASVGDRVTITCRASKTVSTSSYSYMHWYQQKPGKAPKLLIKYASYLESGVPSRFSGSGSGTDFTLTISSLQPEDFATYYCQHSREFPWTFGQGTKVEIKRADAAPGGGGSGGGGSGGGGSEVQLVESGGGLVQPGGSLRLSCAASGFTFSNYGMHWVRQAPGKGLEWVSYISSGSSTIYYADSVKGRFTISRDNAKNSLYLQMNSLRAEDTAVYYCARRGLLLDYWGQGTTVTVSSASTKGPSVFPLAPLESSGSDIQMTQSPSSLSASVGDRVTITCRASKTVSTSSYSYMHWYQQKPGKAPKLLIKYASYLESGVPSRFSGSGSGTDFTLTISSLQPEDFATYYCQHSREFPWTFGQGTKVEIKRADAAPGGGGSGGGGSGGGGSEVQLVESGGGLVQPGGSLRLSCAASGFTFSNYGMHWVRQAPGKGLEWVSYISSGSSTIYYADSVKGRFTISRDNAKNSLYLQMNSLRAEDTAVYYCARRGLLLDYWGQGTTVTVSS |  |  | reductions in cell viability | increased the number of foci | not toxic | killed by the variants
